The results in this text go back to patent US20090214537A1 (Novartis, published 2009).

Experiment [1] concerns the target putative BibA receptor on human epithelial cells (ME180, A549, Caco2, 16HBE). Briefly: flow cytometry saturation curve on ME180 cells, BibA concentration at 50% saturation (FIG. 22B). On the technique in general: Flow cytometry measures light scatter and fluorescence of single cells or particles in a stream.
Experiment [2] has the same target. Briefly: flow cytometry, recombinant BibA on ME180 cells, anti-BibA serum and PE-conjugated secondary antibody.
In experiment [3] the target is T1, Factor H (alternative complement pathway regulator) (UniProt P08603 19-1231).
T1 construct: also called FH
T1 sequence (P08603 19-1231): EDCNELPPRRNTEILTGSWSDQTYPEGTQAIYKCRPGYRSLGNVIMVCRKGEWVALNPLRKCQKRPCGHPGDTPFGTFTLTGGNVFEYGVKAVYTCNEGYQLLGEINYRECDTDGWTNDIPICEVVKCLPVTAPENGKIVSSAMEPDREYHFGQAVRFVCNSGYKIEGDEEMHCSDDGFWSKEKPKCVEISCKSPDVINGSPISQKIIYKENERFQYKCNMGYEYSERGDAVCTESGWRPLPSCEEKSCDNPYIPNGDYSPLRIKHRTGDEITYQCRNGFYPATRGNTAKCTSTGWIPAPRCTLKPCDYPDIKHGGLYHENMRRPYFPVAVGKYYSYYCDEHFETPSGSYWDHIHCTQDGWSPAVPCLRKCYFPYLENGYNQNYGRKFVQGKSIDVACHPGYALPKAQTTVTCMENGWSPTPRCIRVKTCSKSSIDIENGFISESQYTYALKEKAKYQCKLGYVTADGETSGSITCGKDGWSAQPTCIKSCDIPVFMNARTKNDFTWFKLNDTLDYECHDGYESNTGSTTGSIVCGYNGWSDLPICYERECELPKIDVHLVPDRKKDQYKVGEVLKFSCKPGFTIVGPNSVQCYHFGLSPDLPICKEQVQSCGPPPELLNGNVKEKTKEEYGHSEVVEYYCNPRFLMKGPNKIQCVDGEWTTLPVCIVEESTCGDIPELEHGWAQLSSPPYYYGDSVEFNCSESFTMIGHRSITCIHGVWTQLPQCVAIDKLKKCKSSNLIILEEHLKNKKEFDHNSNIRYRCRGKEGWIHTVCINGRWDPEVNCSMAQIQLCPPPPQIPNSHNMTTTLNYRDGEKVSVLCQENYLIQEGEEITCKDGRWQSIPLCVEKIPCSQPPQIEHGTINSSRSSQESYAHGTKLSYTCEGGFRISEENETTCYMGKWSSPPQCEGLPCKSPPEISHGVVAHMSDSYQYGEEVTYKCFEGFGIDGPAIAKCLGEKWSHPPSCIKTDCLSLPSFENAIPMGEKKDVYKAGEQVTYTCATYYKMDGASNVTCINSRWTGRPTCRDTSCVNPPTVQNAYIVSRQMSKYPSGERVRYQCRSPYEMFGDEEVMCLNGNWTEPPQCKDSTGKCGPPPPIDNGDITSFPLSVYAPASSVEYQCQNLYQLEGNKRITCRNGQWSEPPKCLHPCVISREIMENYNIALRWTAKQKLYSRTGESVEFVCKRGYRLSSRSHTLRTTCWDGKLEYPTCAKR
Briefly: overlay blot (format not detailed).

Experiment [4] has as its target T2, human C4b-binding protein (C4BP) purified from citrated human plasma (human, UniProt P04003 49-597; P20851 18-252).
T2 construct: also called human plasma C4BP; human complement regulator C4 bp
T2 sequence 1: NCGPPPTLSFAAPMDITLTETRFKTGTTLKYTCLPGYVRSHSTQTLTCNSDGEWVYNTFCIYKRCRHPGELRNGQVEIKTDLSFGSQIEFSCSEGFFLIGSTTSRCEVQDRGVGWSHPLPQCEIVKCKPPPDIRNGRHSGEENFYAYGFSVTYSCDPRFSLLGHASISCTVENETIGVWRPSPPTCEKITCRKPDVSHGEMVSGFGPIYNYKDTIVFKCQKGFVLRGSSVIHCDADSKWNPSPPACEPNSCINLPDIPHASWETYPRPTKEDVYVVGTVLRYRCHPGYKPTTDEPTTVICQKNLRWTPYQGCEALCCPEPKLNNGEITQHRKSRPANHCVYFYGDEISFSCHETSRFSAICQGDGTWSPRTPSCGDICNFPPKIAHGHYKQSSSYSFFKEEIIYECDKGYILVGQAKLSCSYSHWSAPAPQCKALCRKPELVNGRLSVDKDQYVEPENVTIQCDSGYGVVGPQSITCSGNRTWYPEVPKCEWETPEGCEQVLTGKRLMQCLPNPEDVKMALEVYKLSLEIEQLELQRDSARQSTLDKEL
T2 sequence 2: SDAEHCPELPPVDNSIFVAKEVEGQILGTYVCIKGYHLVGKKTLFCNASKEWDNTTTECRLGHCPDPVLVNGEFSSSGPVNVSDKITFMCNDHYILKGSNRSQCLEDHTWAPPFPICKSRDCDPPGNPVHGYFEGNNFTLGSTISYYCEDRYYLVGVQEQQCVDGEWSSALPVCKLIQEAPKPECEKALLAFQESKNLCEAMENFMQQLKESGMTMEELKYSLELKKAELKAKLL
Briefly: overlay blot of the SDS-PAGE separated constructs with C4bp (FIG. 21C).

Usually Kd stands for the free concentration of one partner at which half of the binding sites on the other are occupied at equilibrium, for simple one-to-one binding. Lower therefore signals a tighter complex.

In the case of “BibA-His (GBS3-His), recombinant entire form of BibA from S. agalactiae 2603 V/R with C-terminal His-tag”, in experiment [1], the Kd turned out to be 40 nM. Besides, in experiment [2], the BibA concentration at which binding reached a plateau turned out to be 5 µg/mL.

B1: BibA-His (GBS3-His), recombinant entire form of BibA from S. agalactiae 2603 V/R with C-terminal His-tag (other)
chain: MHADTSSGISASIPHKKQVNLGAVTLKNLISKYRGNDKAIAILLSRVNDFNRASQDTLPQLINSTEAEIRNILYQGQIGKQNKPSVTTHAKVSDQELGKQSRRSQDIIKSLGFLSSDQKDILVKSISSSKDSQLILKFVTQATQLNNAESTKAKQMAQNDVALIKNISPEVLEEYKEKIQRASTKSQVDEFVAEAKKVVNSNKETLVNQANGKKQEIAKLENLSNDEMLRYNTAIDNVVKQYNEGKLNITAAMNALNSIKQAAQEVAQKNLQKQYAKKIERISSKGLALSKKAKEIYEKHKSILPTPGYYADSVGTYLNRFRDKQTFGNRSVWTGQSGLDEAKKMLDEVKKLLKELQDLTRGTKEDKKPDVKPEAKPEAKPDVKPEAKPDVKPEAKPDVKPEAKPDVKPEAKPDVKPEAKPDVKPKAKPDVKPEAKPDVKPDVKPDVKPEAKPEDKPDVKPDVKPEAKPDVKPEAKPEAKPEAKPEAKPEAKPEAKPDVKPEAKPDVKPEAKPEAKPEAKSEAKPEAKLEAKPEAKPATKKSVNTSGNLAAKKAIENKKYSKKLPSTGEAASPLLAIVSLIVMLSAGLITLEHHHHHH
notes: His-tagged protein expressed from pET21b(+) in E. coli; also called recombinant BibA; BibA protein
As to B1, in experiment [3], the binding result is “no binding”.

B2: BibA-Nt-His (GBS3-Nt-His), coiled-coil domain of BibA, aa 34-394 (other)
chain: MHADTSSGISASIPHKKQVNLGAVTLKNLISKYRGNDKAIAILLSRVNDFNRASQDTLPQLINSTEAEIRNILYQGQIGKQNKPSVTTHAKVSDQELGKQSRRSQDIIKSLGFLSSDQKDILVKSISSSKDSQLILKFVTQATQLNNAESTKAKQMAQNDVALIKNISPEVLEEYKEKIQRASTKSQVDEFVAEAKKVVNSNKETLVNQANGKKQEIAKLENLSNDEMLRYNTAIDNVVKQYNEGKLNITAAMNALNSIKQAAQEVAQKNLQKQYAKKIERISSKGLALSKKAKEIYEKHKSILPTPGYYADSVGTYLNRFRDKQTFGNRSVWTGQSGLDEAKKMLDEVKKLLKELQDLTRGLEHHHHHH
notes: His-tagged fragment expressed from pET21b(+); also called BibA N-terminal construct; N-terminal portion of BibA
As for B2, the binding result in experiment [4] was “binds”.

B3: BibA-Ct-His (GBS3-Ct-His), proline-rich domain of BibA, aa 389-622 (other)
chain: MQDLTRGTKEDKKPDVKPEAKPEAKPDVKPEAKPDVKPEAKPDVKPEAKPDVKPEAKPDVKPEAKPDVKPKAKPDVKPEAKPDVKPDVKPDVKPEAKPEDKPDVKPDVKPEAKPDVKPEAKPEAKPEAKPEAKPEAKPEAKPDVKPEAKPDVKPEAKPEAKPEAKSEAKPEAKLEAKPEAKPATKKSVNTSGNLAAKKAIENKKYSKKLPSTGEAASPLLAIVSLIVMLSAGLITLEHHHHHH
notes: His-tagged fragment; also called BibA C-terminal construct; C-terminal portion of BibA
Take B3: the binding result in experiment [4] is reported as “no binding (tested: 5 µg/ml)”.
